Test [1] concerns the target T1, human TC with the common polymorphism P259R (human, UniProt P20062 19-427).
T1 sequence: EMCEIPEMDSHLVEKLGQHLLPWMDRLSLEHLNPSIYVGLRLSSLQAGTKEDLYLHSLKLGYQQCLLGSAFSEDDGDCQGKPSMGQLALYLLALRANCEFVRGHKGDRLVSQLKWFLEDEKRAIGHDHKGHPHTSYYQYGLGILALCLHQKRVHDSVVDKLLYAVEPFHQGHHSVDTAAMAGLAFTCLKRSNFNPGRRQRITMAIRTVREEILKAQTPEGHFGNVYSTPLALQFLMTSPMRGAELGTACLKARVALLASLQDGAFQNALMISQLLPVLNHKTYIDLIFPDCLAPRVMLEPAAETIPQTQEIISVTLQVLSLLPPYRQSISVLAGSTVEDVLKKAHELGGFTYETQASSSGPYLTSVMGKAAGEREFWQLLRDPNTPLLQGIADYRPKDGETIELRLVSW
Briefly: method not detailed.

In test [2] the target is T2, human holotranscobalamin (holoTC) (human, UniProt P20062 19-427, cobalamin bound (non-covalent complex)).
T2 construct: Recombinant human holoTC in the SPR work; also called holo-TCII
T2 chain: T1 sequence with R241P
The test can be described thus: SPR (Biacore); holoTC against apoTC.

Test [3] has as its target T3, monoclonal antibody 3C4.
T3 construct: Mouse IgG1, ECACC 02110741; also called mAb 3C4; 3C4 (3CY)
The test can be described thus: phage ELISA, 10^9 phagemid, wells coated with mAb 3C4. How it is done: Microtitre plates were coated with 100 μL, 1 μg/mL mAb 3C4 or unrelated control antibody in PBS over night at 4 C. Remaining binding sites were blocked with 20 mg/mL bovine serum albumin (BSA) in PBS for 1 h. Some wells were only coated with BSA. Monoclonal packaged phagemids were added at a concentration of 10¹⁰ to 10⁸ cfu per well in PBS and incubated for 1 h. Preparations of packaged phagemids were centrifuged to remove aggregates. Wells were washed 6 times with PBS containing 0.1% Tween-20 and 3 times with PBS. For detection of bound phages 100 μL of horse-radish peroxidase (HRP) conjugated […] antibody (e.g. Pharmacia) diluted 1/5000 in PBS was added to each well and incubated for 1 h at ambient temperature. ELISA plates were washed 5 times with PBS containing 0.1%
Tween-20 and 3 times with PBS. The chromogenic substrate o-Phenyldiamine in citric acid, pH 4.0 supplemented with H₂O₂ was added and the color generating reaction was stopped after 2-5 min by addition of […].

Substitutions are numbered along the chain they refer to. Positions of bridges follow the written chain, without caps; N, C: chain ends. No end group written: not given here.

T3 sequence (VH, as listed by the source, chain 1 of 2): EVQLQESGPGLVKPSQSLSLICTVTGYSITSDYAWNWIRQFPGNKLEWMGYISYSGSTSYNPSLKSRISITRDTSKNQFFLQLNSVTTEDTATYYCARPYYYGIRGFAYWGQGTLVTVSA
T3 sequence (VL, as listed by the source, chain 2 of 2): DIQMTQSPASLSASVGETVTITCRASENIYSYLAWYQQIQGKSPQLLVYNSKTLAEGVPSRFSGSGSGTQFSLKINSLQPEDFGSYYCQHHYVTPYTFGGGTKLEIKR

B1: monoclonal antibody TC2 (antibody, V domains shown)
VH: QVQLKQSGPGLLQPSQSLSITCTVSGFSLTYYGVHWVRQSPVKGLEWLGVIWSGGDTDYDTTFISRLSISKDNSKGQVFFKMTSLQTDDTAIYYCARGRTYGIHFDYWGQGTTLTVSS
VL: DIVMSQSPSSLAVSVGEKVTMSCKSSQSLFNSRTRKNYLAWYQQKPGQSPKVLIYWASTRESGVPDRFTGSGSGTDFTLTISSVQAEDLAIYYCKQFYDLWTFGGGTKLEIKR
notes: Mouse IgG1, ECACC 02110742; also called mAb TC2
For the molecule B1, the binding result in test [1] is on record as “binds”. Moreover, in test [2], the “holo/apo Specificity (-fold)” value was 1 fold.

B2: phagemid CS1-29p, displayed peptide CSGLYPWDYFMCS (peptide)
peptide: CSGLYPWDYFMCS
modifications: disulfide 1-12 (inferred); also: displayed on phagemid
Consider B2, for which the “ELISA (absorbance units)” value in test [3] amounted to 0.136 absorbance units.

The values above are taken from US20060240570A1 (AXIS SHIELD ASA, published 2006).
